Among the data in patent US20220387586A1 (Hoffmann-La Roche, published 2022) are koff values, retold here.

The labels stand for the following.
T1: human Fc tagged human Lag3 extra cellular domain (human, UniProt P18627 29-450, biotinylated in the epitope binning, the SA CAP SPR and the FACS competition assay)
T1 construct: In-house fusion; also called huLag3-Fc; biotinylated, huFc-tagged huLag3; not shown: human Fc tag
T1 sequence: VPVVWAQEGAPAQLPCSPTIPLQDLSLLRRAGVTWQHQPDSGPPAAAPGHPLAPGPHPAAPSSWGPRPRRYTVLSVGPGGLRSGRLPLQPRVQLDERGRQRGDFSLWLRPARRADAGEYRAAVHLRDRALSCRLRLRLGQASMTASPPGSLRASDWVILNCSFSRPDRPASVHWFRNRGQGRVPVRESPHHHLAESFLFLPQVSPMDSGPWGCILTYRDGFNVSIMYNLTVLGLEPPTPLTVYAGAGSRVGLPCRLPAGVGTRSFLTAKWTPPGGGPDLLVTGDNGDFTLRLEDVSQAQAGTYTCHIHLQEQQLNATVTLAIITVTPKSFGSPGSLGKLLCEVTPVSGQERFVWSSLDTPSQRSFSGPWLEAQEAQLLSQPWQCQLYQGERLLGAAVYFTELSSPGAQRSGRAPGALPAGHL

B1: MDX-26H10 (26H10) Fab fragment (Fab, V domains shown)
VH: QVQLVESGGGVVQPGRSLRLSCAASGFTFSSYGMHWVRQAPGKGLEWVAVIWYDGSNKYYADSVKGRFTISRDNSKNTLYLQMNSLRAEDTAVYYCAREWAVASWDYGMDVWGQGTTVTVSS
VL: not shown
B2: aLAG3(0411) Fab fragment (Fab, V domains shown)
VH: EVHLLESGGGLVQPGGSLRLSCAASGFIVDDYTMNWVRQAPGKGLEWVSVISWDGGATYYADSVKGRFTISRDDFKNTLYLQMNSLRAEDTAVYYCAKGLTDDTLYGSDYWGQGTLVTVSS
VL: DIQMTQSPSSLSASVGDRVTITCRASQSIVSYLNWYQQKPGKAPKLLIYASSSLQSGVPSRFSGSGSGTDFTLTISSLQPEDFATYYCQQTYSTPLTFGGGTKVEIK
notes: also called aLAG3 (411)
B3: aLAG3(0417) Fab fragment (Fab, V domains shown)
VH: EVQLVESGGGLVQPGGSLRLACAASGFTFSDYAMSWVRQAPGKGLEWVSGIDNSGYYTYYTDSVKGRFTISRDDVKNTLYLQMNSLRAEDTAVYLCTKTHSGLIVNDAFDIWGQGTMVTVSS
VL: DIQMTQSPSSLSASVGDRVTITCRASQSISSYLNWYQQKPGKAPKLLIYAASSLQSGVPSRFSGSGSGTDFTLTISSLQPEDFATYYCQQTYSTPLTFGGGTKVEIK
notes: also called aLAG3 (417)
B4: MDX-25F7 (25F7) Fab fragment (Fab, V domains shown)
VH: QVQLQQWGAGLLKPSETLSLTCAVYGGSFSDYYWNWIRQPPGKGLEWIGEINHNGNTNSNPSLKSRVTLSLDTSKNQFSLKLRSVTAADTAVYYCAFGYSDYEYNWFDPWGQGTLVTVSS
VL: EIVLTQSPATLSLSPGERATLSCRASQSISSYLAWYQQKPGQAPRLLIYDASNRATGIPARFSGSGSGTDFTLTISSLEPEDFAVYYCQQRSNWPLTFGQGTNLEIK
B5: aLAG3(0403) Fab fragment (Fab, V domains shown)
VH: EVQLLESGGGLVQPGGSLRLSCAASGFTFDDYTMHWVRQAPGKGLEWVSLVSWDGGGTYYTNSVKGRFTISRDNSKNTLYLQMNSLRAEDTAVYFCAKAITDTSLYGYDYWGQGILVTVSS
VL: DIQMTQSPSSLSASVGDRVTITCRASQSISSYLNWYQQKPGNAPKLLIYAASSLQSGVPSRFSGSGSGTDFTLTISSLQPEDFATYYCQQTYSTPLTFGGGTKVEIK

In this test the target is T1, human Fc tagged human Lag3 extra …. Briefly: SPR (Biacore T200), huLag3-Fc captured, antibody Fab fragment as analyte, 25 °C. As for the experimental part: Therefore two flow cells of a C1 biosensor chip were prepared in a Biacore T200 by immobilizing neutravidin, diluted to 25 μg/ml in acetate buffer pH 4.5, onto it using the ‘immobilization wizard’. […] Then, CaptureSelect™ Biotin Anti-IgG-Fc (Human) Conjugate was bound to the neutravidin, using a 20 μg/ml dilution in running buffer (HBS-EP+, GE Healthcare).
The method itself consisted of four commands per cycle. […] Second command: sample injection for 120s followed by a 1200s long dissociation at a flow speed of 30 μl/min. Third and fourth command: regeneration by injecting Glycine-HCl pH 1.5 for 30 seconds.
In turn, B1 yielded a koff of 0.000399 s⁻¹. For the molecule B2, the koff amounted to 3.87e-05 s⁻¹. For B3 the value was 9.48e-05 s⁻¹; for B4, 0.000386 s⁻¹; for B5, 5e-06 s⁻¹.

One may read the koff as a measure of how fast the partners let go of each other. Lower therefore signals a long-lived complex.
